The values below are quoted from earlier work in paper PMC10130511.

pKd: −log10 of the molar value. Where two headings read alike, the source gives them in different places.

In data set [1] the target is IP3R (UniProt P29994).
In data set [2] the target is IP3R (UniProt P29994). The source holds these as a separate data set.
The target in data set [3] is IP3R (UniProt P29994). This is another data set of the same source.

Chain of UniProt P29994 (P29994 whole entry): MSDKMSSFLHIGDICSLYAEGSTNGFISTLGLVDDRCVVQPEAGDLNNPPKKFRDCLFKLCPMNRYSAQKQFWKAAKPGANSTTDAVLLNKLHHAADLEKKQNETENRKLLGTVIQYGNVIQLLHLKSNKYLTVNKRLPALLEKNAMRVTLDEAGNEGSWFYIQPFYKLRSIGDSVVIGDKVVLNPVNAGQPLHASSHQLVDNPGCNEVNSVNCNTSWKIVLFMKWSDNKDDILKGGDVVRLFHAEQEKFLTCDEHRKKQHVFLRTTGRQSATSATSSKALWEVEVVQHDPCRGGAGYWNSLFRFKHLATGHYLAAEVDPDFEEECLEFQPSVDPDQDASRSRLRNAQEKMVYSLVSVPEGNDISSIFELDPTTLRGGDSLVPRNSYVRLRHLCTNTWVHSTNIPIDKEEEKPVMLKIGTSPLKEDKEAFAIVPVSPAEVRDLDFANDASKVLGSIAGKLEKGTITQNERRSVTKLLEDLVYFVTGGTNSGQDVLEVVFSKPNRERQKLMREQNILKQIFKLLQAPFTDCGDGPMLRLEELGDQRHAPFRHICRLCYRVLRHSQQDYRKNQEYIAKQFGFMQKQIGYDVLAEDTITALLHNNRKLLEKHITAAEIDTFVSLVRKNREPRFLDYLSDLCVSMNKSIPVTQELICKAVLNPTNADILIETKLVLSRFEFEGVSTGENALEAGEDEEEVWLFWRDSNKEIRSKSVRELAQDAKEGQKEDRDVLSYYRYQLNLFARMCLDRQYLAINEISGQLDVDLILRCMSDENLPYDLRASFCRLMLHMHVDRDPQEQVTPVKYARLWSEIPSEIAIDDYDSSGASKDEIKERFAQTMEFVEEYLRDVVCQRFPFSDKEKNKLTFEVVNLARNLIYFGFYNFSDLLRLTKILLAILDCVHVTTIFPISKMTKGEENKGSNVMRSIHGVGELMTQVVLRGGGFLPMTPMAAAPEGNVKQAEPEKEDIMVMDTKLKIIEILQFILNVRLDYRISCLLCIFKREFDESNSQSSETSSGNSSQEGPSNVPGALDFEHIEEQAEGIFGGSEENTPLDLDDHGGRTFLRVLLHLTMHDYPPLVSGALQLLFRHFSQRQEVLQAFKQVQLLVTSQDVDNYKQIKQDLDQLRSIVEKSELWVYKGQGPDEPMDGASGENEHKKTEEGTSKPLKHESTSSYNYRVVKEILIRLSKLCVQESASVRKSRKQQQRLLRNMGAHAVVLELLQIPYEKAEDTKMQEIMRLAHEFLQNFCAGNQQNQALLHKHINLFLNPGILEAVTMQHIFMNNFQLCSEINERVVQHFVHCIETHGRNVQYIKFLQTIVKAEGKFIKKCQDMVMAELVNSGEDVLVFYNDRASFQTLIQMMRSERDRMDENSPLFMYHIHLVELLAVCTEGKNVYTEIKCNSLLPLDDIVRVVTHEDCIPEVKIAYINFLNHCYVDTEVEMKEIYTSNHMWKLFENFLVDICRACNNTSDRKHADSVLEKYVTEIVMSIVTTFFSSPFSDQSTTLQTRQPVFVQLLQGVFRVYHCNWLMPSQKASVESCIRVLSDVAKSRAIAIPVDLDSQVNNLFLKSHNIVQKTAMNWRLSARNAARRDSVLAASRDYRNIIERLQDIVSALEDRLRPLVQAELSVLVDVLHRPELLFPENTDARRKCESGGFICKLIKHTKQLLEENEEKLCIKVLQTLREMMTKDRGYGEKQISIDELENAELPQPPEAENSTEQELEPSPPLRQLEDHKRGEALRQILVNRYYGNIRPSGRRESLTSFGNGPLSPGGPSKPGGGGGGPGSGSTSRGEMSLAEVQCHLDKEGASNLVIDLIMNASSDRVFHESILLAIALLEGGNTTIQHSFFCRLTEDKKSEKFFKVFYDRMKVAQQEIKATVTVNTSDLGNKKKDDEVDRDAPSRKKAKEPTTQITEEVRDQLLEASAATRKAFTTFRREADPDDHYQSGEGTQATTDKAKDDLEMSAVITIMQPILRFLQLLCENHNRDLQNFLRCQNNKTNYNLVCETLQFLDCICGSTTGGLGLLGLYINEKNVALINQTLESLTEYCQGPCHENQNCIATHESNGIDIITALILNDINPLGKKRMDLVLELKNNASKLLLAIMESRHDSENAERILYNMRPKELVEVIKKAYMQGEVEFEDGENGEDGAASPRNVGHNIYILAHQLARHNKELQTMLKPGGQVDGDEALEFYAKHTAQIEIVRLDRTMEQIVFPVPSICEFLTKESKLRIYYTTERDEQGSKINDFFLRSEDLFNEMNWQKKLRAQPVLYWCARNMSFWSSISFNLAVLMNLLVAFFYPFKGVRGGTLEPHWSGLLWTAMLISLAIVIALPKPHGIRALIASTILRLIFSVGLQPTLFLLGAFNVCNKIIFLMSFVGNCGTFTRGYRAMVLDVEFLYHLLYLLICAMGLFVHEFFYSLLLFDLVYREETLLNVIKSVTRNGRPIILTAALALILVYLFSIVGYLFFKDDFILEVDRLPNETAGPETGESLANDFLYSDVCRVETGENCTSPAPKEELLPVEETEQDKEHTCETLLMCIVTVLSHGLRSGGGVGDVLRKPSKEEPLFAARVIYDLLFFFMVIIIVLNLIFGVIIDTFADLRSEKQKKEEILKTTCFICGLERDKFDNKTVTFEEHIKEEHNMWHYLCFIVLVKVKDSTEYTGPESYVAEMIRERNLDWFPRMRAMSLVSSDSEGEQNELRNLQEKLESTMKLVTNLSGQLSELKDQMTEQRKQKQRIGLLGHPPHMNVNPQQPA

As for Bcl-2 (from UniProt P10415), in the data set with IP3R [1], the negative logarithm of the Kd (pKd) is 6.00. Bcl-xL (from UniProt Q07817): the pKd with IP3R [2] is 6.15.

As for Bok (from UniProt Q9UMX3), the pKd with IP3R [3] was 7.19.

By pKd is commonly meant the Kd on a negative log10 scale, so that one unit is a factor of ten.
